The RNAGym collection of RNA variant scans (doi:10.1073/pnas.2313332121)
Fewer inactive variants are shown than the library holds.

B1: TPR 5TU (parent)
chain: GGAUCUUCUCGAUCUAACAAAAAAGACAAAUCUGCCACAAAGCUUGAGAGCAUCUUCGGAUGCAGAGGCGGCAGCCUUCGGUGGCGCGAUAGCGCCAACGUUCUCAACUAUGACACGCAAAACGCGUGCUCCGUUGAAUGGAGUUUAUCAUG

Variants of: B1
Test: polymerase ribozyme fitness, log enrichment relative to wild type (log ratio); higher = more active; in vitro selection for triplet polymerase activity
Outline: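 Fitness is a logarithmic measure of how a genotype enriched relative to the wild type, with replicate averages weighted by inverse variance. The logarithm uses base 2, and enrichment came from Illumina sequencing of input and output libraries. Those libraries were PCR-built, transcribed mutants of each subunit of a heterodimeric triplet polymerase ribozyme, passed through one triplicate in vitro selection round that included frozen incubation at −7 °C, gel excision of extended constructs and streptavidin-bead capture. Genotypes were kept only if they had ≥10 input reads and ≥1 read per output.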

| Variant | polymerase ribozyme fitness (log ratio) |
| --- | --- |
| A16G A17U A52C A91U C93U U111G C123U G124U G133A | ≤ -4.2 |
| A16C C38U G50A C95G C116G | -4.14 |
| U15G A40C G42A A49G G62C C93A | ≤ -4.2 |
| A16U A19U C32G A60U A91U C99U A138C | ≤ -4.2 |
| C14U G92C G136A | -2.51 |
| U15A C38U C54U C95G G141A | -1.16 |
| A16U C32G G34A C85G U90G A97G U134G G141C | ≤ -4.2 |
| A16C G81A | -0.894 |
| A16C A17G C76G C96A A107G | ≤ -4.2 |
| A16C U82A C95G G141A | -3.41 |
| A16G G34U A52U A60G C72G G88U A91U G140C | ≤ -4.2 |
| A16G C38U U82A C96G | -1 |
| U15G A17U | -0.367 |
| A17C C35U G86A A122G | -1.01 |
| A17G C79A G80C U109C | ≤ -4.2 |
| U15G A23G G50C C51G C63G C96G | ≤ -4.2 |
| A17C C18G A26U A41C U45G A49U U55A G62A G92U C108U C118U | ≤ -4.2 |
| A16G A49U G62A G92A C96A | ≤ -4.2 |
| A16G G128U | -3.4 |
| A17C U33C G83A G141U | ≤ -4.2 |
| U15G A24U G25C C38G C54G C76G G81C C93A C132U | ≤ -4.2 |
| C14U G141U | 0.0902 |
| A16C C27G U53A C54A G74A G94A | ≤ -4.2 |
| C14U U31A G48C G67C A91U | ≤ -4.2 |

| Variant | polymerase ribozyme fitness (log ratio) |
| --- | --- |
| A16C G83U | -1.56 |
| U15G C32A G88A A97G | ≤ -4.2 |
| A16G C27A G58C C85A C96G C116U G143C U148A | ≤ -4.2 |
| A16C C79A A91U C116A C149A | ≤ -4.2 |
| U15G G59U U135G | -3.96 |
| A16U G46C G50C G67A G74C C118U U130A | -4.05 |
| C14U U55A | -1.33 |
| A16C C36G G92A C108A A113G U139A | ≤ -4.2 |
| A16G A26C C32U A47C U53A A91G C96G | ≤ -4.2 |
| A16G A22U C85G G92A C93G C108G A113U G117C | ≤ -4.2 |
| U15G A17G C27G A39G | ≤ -4.2 |
| U15C A17G C35G U56A G117C | -4.19 |
| A16G G86U C132U U135G | ≤ -4.2 |
| A16G A40C A119C U127C | -3.55 |
| C14U U53A U56A | -2.46 |
| A17G A21G A52U U56A A91G | -4 |
| U15G A41U A73G | -1.57 |
| U15G G74A C96U C125A G141U | ≤ -4.2 |
| A16U A22C C51U U55A G74A C99G C114A C131U | ≤ -4.2 |
| A17G C72A U77G C79U U109G | ≤ -4.2 |
| A16G A110G | -3.77 |
| A16U A37U C79A C99U U139A A142U | ≤ -4.2 |
| A16U C85U U144C | -2.3 |
| A16U C87U | -2.65 |

| Variant | polymerase ribozyme fitness (log ratio) |
| --- | --- |
| C14U U55A G126A C132U | -1.73 |
| A16U A17U U44A C54U A66G A89G G140C | ≤ -4.2 |
| U15G A30G C54A | ≤ -4.2 |
| A16G A23U A29G A37U C43U C79G C99A A122G | ≤ -4.2 |
| U15G U45C G71A G94U U134C A138U U145G | ≤ -4.2 |
| A17G C18G A64G C85A G100A A106U A119U | ≤ -4.2 |
| A17G A24C A41U A91U A98G | ≤ -4.2 |
| U15C G84A A106G G124A | -0.149 |
| A16G C18A A26G C38U G42C G81A C87A C116A | ≤ -4.2 |
| A16U U82G C87U A122C | -2.32 |
| U15A C18G C27U U55A G86A C96G U104A A150G | ≤ -4.2 |
| A16U C18A A21C A73U G92U | -2.75 |
| U15A U31A G83U C103G U139A | ≤ -4.2 |
| A16C C51U C87G C118G G133U | ≤ -4.2 |
| U15G C27A | -4.13 |
| A17G A22G U56A | 0.0483 |
| A17C C18G A40U G86U | -1.43 |
| U15G C57G C93A C99G | -4.06 |
| U15A C43U U53G C76A U102G A119G G128U U135G A142U | ≤ -4.2 |
| A16U A26C C54A A119C G133C U135A | ≤ -4.2 |
| A16U U61A C93U G140A G143U U148G | ≤ -4.2 |
| U15C A91U | ≤ -4.2 |
| A17C C131G | -3.09 |
| A16C A19G G34A G71A C87G U145A U146C | ≤ -4.2 |

| Variant | polymerase ribozyme fitness (log ratio) |
| --- | --- |
| A16G C36G | -4.12 |
| A16G C32A C38G U56A A60C C87A C123U A150C | ≤ -4.2 |
| A16U A21G C32U G50C U151G | ≤ -4.2 |
| A16U A24U U33A C35U C87G | -4.15 |
| A16G A22U A91U C93U U102G G128U | ≤ -4.2 |
| A17C A23U A40C G86U | ≤ -4.2 |
| A17C C76U G92U C129A | -3.05 |
| A16U A49C G50A C54G C96A U101C U135G | ≤ -4.2 |
| A16C C95U | -0.661 |
| A16C A24G A47C C85G A97C A120G | ≤ -4.2 |
| A17C A52C C79A G81A G84U A110G G112C | ≤ -4.2 |
| A17C G81U C85A C95U C105G | -1.64 |
| A16G G34C C35A C54A C93A | ≤ -4.2 |
| A16C C87U | -1.85 |
| U15G G25C C51A C96G C149G | ≤ -4.2 |
| A16U C27G A89G G92U C149G | ≤ -4.2 |
| A17C A22U A37U A60G G71U U78A C93A U104G A122C | ≤ -4.2 |
| U15G U55A | -0.257 |
| A16U A22C G59A C118A | -3.09 |
| U15A A21G A49G C96G | -1.26 |
| U15A A29U G59U C95U A120G U127G U135C G143A | ≤ -4.2 |
| A16U U45C C123A | -2.97 |
| A17C C18U C43U A97G U148A | ≤ -4.2 |
| A16G A17C A21U A29G U55A C57G A91C C103U U145A | ≤ -4.2 |

| Variant | polymerase ribozyme fitness (log ratio) |
| --- | --- |
| A17C G58U G128A A138U | -4.13 |
| A17C U53A G71C G83A A91U C93A C108U U127G | ≤ -4.2 |
| U15C A21G A24U U53A | 0.983 |
| A17G A26C A40U A47C G59A G68A U109G C116G A119C | ≤ -4.2 |
| A16C A52G U55A G94U A107G | ≤ -4.2 |
| U15G A24U A60G G92U | 0.475 |
| U15A G59A A60U C79U C87A | ≤ -4.2 |
| A16U G65A C69A A91U C93A G100C U101G C123G | ≤ -4.2 |
| U15C U61A A89G A98G | -1.62 |
| U15A A20U | -0.122 |
| U15C A37U G46U G84U U148C | ≤ -4.2 |
| A16G U33G U55A C95U | -3.89 |
| A16C C99G C125A | -2.16 |
| A16U G71A A73G C93U A113C C118A G140A | ≤ -4.2 |
| A16U U31G A37G G83A C96A A106C | ≤ -4.2 |
| A16G C35A | -3.53 |
| A17G A24U A37C A41U G84A U101C C105A U111G C118U | ≤ -4.2 |
| A16G C57G C76A | -1.31 |
| A17G A37U C51U | -2.83 |
| U15G A47C | -0.922 |
| U15G U53A A60C G83A C85U | -3.78 |
| A17C A30G C95G | -3.8 |
| A17C C95U C96U G136A U144C A147U | -0.941 |
| A16C C35U G80A G94A C118U | -3.33 |

| Variant | polymerase ribozyme fitness (log ratio) |
| --- | --- |
| U15G A24C G59C G68C C79G G81U C95A C132U | ≤ -4.2 |
| U15G A21C G83U A89G C96G U127A | -4.13 |
| U15G C95U U104G U144A | -0.599 |
| A16G A52C U53A G92C U109G A137C U139G | ≤ -4.2 |
| A16G G83A | -0.814 |
| A16C U33A C54A C85A A91G C125G G133U | ≤ -4.2 |
| A16U A17G C85G | -4.18 |
| U15G U31G A40U C57A C95G C125U G140U | ≤ -4.2 |
| A16C C18G U45G U61G | ≤ -4.2 |
| A17C G50U U56A G58C G84U | -1.22 |
| C14U G83C A106C | -2.96 |
| A16C G83C U146G U148C C149A | ≤ -4.2 |
| C14U U15A C93U U101A | -2.56 |
| A16U U53A A66G C87A | ≤ -4.2 |
| A16C A89U A91U U127C | ≤ -4.2 |
| A16C A24C G50C C85U G143U | ≤ -4.2 |
| A17G C32G C76U | ≤ -4.2 |
| A17C U31C A47C U55A C76U G84U | -3.49 |
| U15C C18A G83A C93U A122U | -1.53 |
| A16U A20C A41U C87G A98G | ≤ -4.2 |
| A16U A22C A30U U55A C57A C76G G81U G84C | ≤ -4.2 |
| U15A G50A U109G A110G | ≤ -4.2 |
| A17C G141U | 1.61 |
| U15G C38U U55A U56A C57G C85U A147C | -2.05 |

| Variant | polymerase ribozyme fitness (log ratio) |
| --- | --- |
| U15G A73C G84U C96A C103G A110G A137C | ≤ -4.2 |
| A17C A30C | -3.82 |
| U15G A39U C43U G50C G94A | ≤ -4.2 |
| A16G U56A | -1.7 |
| U15G C27G C76U C87G | ≤ -4.2 |
| A17G C125A | 0.215 |
| A17G C38G C51A U78G U90G C131A | ≤ -4.2 |
| U15C U53A A73G C76U G92C | -1.85 |
| A16C A21U C69U G71A | -1.79 |
| A16G A91U C105G A115G | ≤ -4.2 |
| A16C A20G C27U A60G G117A | -3.38 |
| A16U C35A G74A G80C G83U G86A A97U | ≤ -4.2 |
| C14U G83U C95U C116U | -1.49 |
| A16G C27G G70C C87U A119U G133C G143A | ≤ -4.2 |
| A16G A52G C57U A73C C85U C96G | ≤ -4.2 |
| A17C C27U C38A C85U | -0.305 |
| A16U A64U A66C C93G | ≤ -4.2 |
| A16G U33G C95G | ≤ -4.2 |
| A17C C85U | 0.349 |
| U15A G59A A60G C69A A121C G140A | -3.82 |
| A17C G68A G83A C116A G128A | ≤ -4.2 |
| U15G A49G C87U G136A | -1.17 |
| A16C G86C A110G | ≤ -4.2 |
